Test results reported in the supplement of paper PMC12764529.
± gives the half width of the 95% confidence interval.

Experiments:
[1] = folding stability dG unfold from trypsin proteolysis; higher = more stable
Outline: (§1)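 K50 was inferred by Bayesian fitting of sequencing counts obtained after protease digestion of designed mini-proteins. Unfolding free energy was derived by comparison with a sequence-predicted unfolded-state K50 and a shared folded-state K50, for each protease or both combined. The mini-proteins were under 80 residues, had no cysteine, were carried in a PA-tagged cDNA display construct, and were kept only if AlphaFold2 dimer inter-PAE exceeded 15.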

[2] = folding stability dG unfold from chymotrypsin proteolysis; higher = more stable
Outline: as §1

[3] = folding stability dG unfold (combined trypsin and chymotrypsin); higher = more stable
Outline: as §1

| Sequence | folding stability dG unfold [1] | folding stability dG unfold [2] | folding stability dG unfold [3] |
| --- | --- | --- | --- |
| SAGGSAIENQFLRITMYHGNKPHTWTFPIKKVDIDPEDGNIEVYFPPEFRELFGGPMRITDIEFPPSAGGSA [r15_710_TrROS] | 1.14 ± 0.019 kcal/mol | 1.63 ± 0.071 kcal/mol | 1.46 ± 0.067 kcal/mol |
| SAGGSAIKLPSGVKIEFKKTEDGKYIVRVTLPDGKPIELEFEGDPEGPNNITPEEINDAILEKIKSSAGGSA [r15_780_TrMRF] | 2.67 ± 0.11 kcal/mol | 3.23 ± 0.056 kcal/mol | 3.06 ± 0.081 kcal/mol |
| SAGGSAIVIPVKSWEEFVEALKNAPASVEIIADLPDGNVIKAKIDPSKGPKIIITEVFPVPPELAGSAGGSA [r15_577_TrMRF] | 0.515 ± 0.036 kcal/mol | 1.06 ± 0.053 kcal/mol | 0.859 ± 0.11 kcal/mol |
| SAGGSAIWIPADEIRELAKEPGLEVEKEPQPDGMLHFTIKNPKNGKRITIVVWDPENGWWHIMPIPSAGGSA [r15_442_TrROS] | 0.947 ± 0.019 kcal/mol | 0.854 ± 0.098 kcal/mol | 0.928 ± 0.083 kcal/mol |
| SAGGSAKEALVKAVEELFKKLFPDEPIEVLKVDPEKGRITIKVNSDEARKALEKALKELGIEVDLDSAGGSA [r15_196_TrMRF] | 3.75 ± 0.11 kcal/mol | 2.91 ± 0.092 kcal/mol | 3.34 ± 0.11 kcal/mol |
| SAGGSAKGKKTRTITIMAPFDNKEEAREQAEEIADNIMNNLPDDMKIKVEVSWNPEDNYVMATIRISAGGSA [r15_981_TrROS] | 0.404 ± 0.3 kcal/mol | 0.842 ± 0.11 kcal/mol | 0.707 ± 0.25 kcal/mol |
| SAGGSAKIEEIASLPAEEIAEAFGLTVISATVERFEDGTVVLTVEIAPPLGPPIRVTFVFGVDPEKSAGGSA [r15_805_TrMRF] | 2.21 ± 0.045 kcal/mol | 4.19 ± 0.061 kcal/mol | 3.75 ± 0.058 kcal/mol |
| SAGGSAKIEIERIEPRPVLVPRPDGSLVPVPEVEVELRIEGDPEKMEEEERKKIEALAEEIAKELGSAGGSA [r2_40_TrMRF] | -0.508 ± 0.16 kcal/mol | 0.736 ± 0.056 kcal/mol | 0.428 ± 0.16 kcal/mol |
| SAGGSAKIEITIFIPGMSEEEVKKLAEELAEELRKKGLSDEEIKEIKIKVYKVPVYKTEDGKLVKVSAGGSA [r15_684_TrROS_Hall] | 0.884 ± 0.046 kcal/mol | 1.82 ± 0.059 kcal/mol | 1.44 ± 0.089 kcal/mol |
| SAGGSAKITIEKVDDQYRITVTVPVYDENGNKVPLTFDFVYPSDDPDAFLDDVIRRIRELNPDLEKSAGGSA [r15_1050_TrMRF] | 2.3 ± 0.073 kcal/mol | 3.01 ± 0.084 kcal/mol | 2.77 ± 0.1 kcal/mol |
| SAGGSAKITIKPGETITITIKLENGETVEIRMRVEELPDGTYKITMEITYPDGSKIEMELTLKIKPSAGGSA [r15_476_TrROS_Hall] | 2.58 ± 0.21 kcal/mol | 4.43 ± 0.18 kcal/mol | 4.05 ± 0.44 kcal/mol |
| SAGGSAKKIKIFSLEELRERFPDLSEEELKKRAEELAKELAERLKEEGKPVEVEIVEVKLPEEEKKSAGGSA [r15_287_TrROS_Hall] | 0.382 ± 0.13 kcal/mol | 2.107 ± 0.015 kcal/mol | 1.69 ± 0.094 kcal/mol |
| SAGGSAKKKIKIKVKNKDGSVYELEFDEENGIVKITYKDGKKEELSVEELKKLPLPKNITEVEIVPSAGGSA [r15_1043_TrROS_Hall] | 1.57 ± 0.043 kcal/mol | 2.59 ± 0.036 kcal/mol | 2.25 ± 0.059 kcal/mol |
| SAGGSAKKKKVTITIEVVKNKETGEYLVRIKIKVDGKEYEIVMSEDELKALIDAGVKIEKIEVYPRSAGGSA [r15_783_TrROS_Hall] | 1.6 ± 0.017 kcal/mol | 2.99 ± 0.082 kcal/mol | 2.59 ± 0.1 kcal/mol |
| SAGGSAKKKVTITVEKKGDKYLVTIEVDGKTVVIEVPKDTTIEEIAAALPPGAKIKEIKVVKAEELSAGGSA [r15_1058_TrROS_Hall] | 0.716 ± 0.034 kcal/mol | 1.33 ± 0.031 kcal/mol | 1.16 ± 0.067 kcal/mol |
| SAGGSAKKLPAEAVAKELAERLSKELGLTIKRVEVEVIDPEKGLVRVTVVYETPYGYLKREILLPVSAGGSA [r15_32_TrMRF] | 1.83 ± 0.026 kcal/mol | 3.825 ± 0.033 kcal/mol | 3.31 ± 0.1 kcal/mol |
| SAGGSAKKPKWIPIKIKLPGSLEEAREWAEEIAKWLAKQNGDIKIDAIKYERDPNGHVEVTIQVRVSAGGSA [r15_718_TrROS] | 2.36 ± 0.066 kcal/mol | 3.83 ± 0.059 kcal/mol | 3.36 ± 0.086 kcal/mol |
| SAGGSAKKTLKIKVKTPKGGLKTIEIPDSVKKIDIIPGKDYVKIIIYNPKTKKKIELPPFKVIEISSAGGSA [r15_133_TrMRF] | 1.26 ± 0.047 kcal/mol | 2.01 ± 0.031 kcal/mol | 1.79 ± 0.086 kcal/mol |
| SAGGSAKKYIVLAKIKEVKVTKTYKTKNGKKVKVTVKVEIKVEPVKVFKIKKDKNGNWKIEPGEVLSAGGSA [r15_162_TrROS_Hall] | 2.96 ± 0.15 kcal/mol | 2.88 ± 0.14 kcal/mol | 3.14 ± 0.28 kcal/mol |
| SAGGSAKMKITVEKNEDGELYVLIEVDSVEELEEALKKLPGIEKVEVEVFVDEETKRVYILVRVKPSAGGSA [r15_344_TrROS_Hall] | 2.36 ± 0.071 kcal/mol | 3.62 ± 0.045 kcal/mol | 3.26 ± 0.064 kcal/mol |
